For this experiment, the target named is T1, PH^Ste5 domain (Ste5 aa 373–537), bacterially expressed and purified (S. cerevisiae, UniProt P32917 373-537).
T1 sequence (looked up): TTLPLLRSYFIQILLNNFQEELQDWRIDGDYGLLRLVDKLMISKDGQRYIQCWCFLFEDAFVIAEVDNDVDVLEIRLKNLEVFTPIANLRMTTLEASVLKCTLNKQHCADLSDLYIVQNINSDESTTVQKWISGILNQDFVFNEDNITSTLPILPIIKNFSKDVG
As to the kind of experiment: SPR.

B1: His-tagged RBL^Ste11 domain (Ste11 aa 116–236) (domain or fragment, S. cerevisiae, UniProt P23561 116-236, looked up)
chain: PEKHCVIFILNDGSAKKVNVNGCFNADSIKKRLIRRLPHELLATNSNGEVTKMVQDYDVFVLDYTKNVLHLLYDVELVTICHANDRVEKNRLIFVSKDQTPSDKAISTSKKLYLRTLSALS
Usually Kd stands for a measure of binding affinity in units of concentration. A high value points to lower affinity. In turn, B1 yielded a Kd of roughly 200 nM.

These data come from article PMC3564526 (Molecular Biology of the Cell, 2013).
